Data set [1] has as its system HeLa Kyoto. Briefly: melting temperature (median over replicates), in situ; higher = more thermally stable.
Data set [2] deals with HeLa Kyoto. Description: solubility change mitosis vs G1/S (difference of NP-40 vs SDS log2 ratios) (log2 ratio difference); higher = more soluble in mitosis.
Data set [3] has as its system HeLa Kyoto. Briefly: thermal stability score vs G1/S (z-score of summed log2 fold changes over temperatures); higher = more thermally stable than in G1/S.
Data set [4] deals with HeLa Kyoto. Description: solubility in G1/S (NP-40 vs SDS abundance) (log2 ratio); higher = more soluble. To be noted: cell cycle stage: G1/S.
Setting [5] is: cell cycle stage: early G1 (4.5 h after nocodazole release).
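For melting temperature (median over replicates), in situ in this document: HeLa Kyoto cells synchronized by double thymidine or nocodazole block, proteins quantified by TMT10plex mass spectrometry, three independent biological replicates.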
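For solubility change mitosis vs G1/S (difference of NP-40 vs SDS log2 ratios) in this document: synchronized HeLa Kyoto cells (double thymidine block for G1/S, nocodazole release for mitosis), protein amounts in NP-40 versus SDS lysates quantified by mass spectrometry, three biological replicates.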
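For solubility in G1/S (NP-40 vs SDS abundance) in this document: HeLa Kyoto cells arrested at G1/S by double thymidine block, proteins quantified by TMT10plex mass spectrometry in mild NP-40 versus SDS extracts, three biological replicates.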
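For thermal stability score vs G1/S (z-score of summed log2 fold changes over temperatures) in this document: synchronized HeLa Kyoto cells, proteins quantified by TMT10plex mass spectrometry, three biological replicates, mitosis taken 0.5 h after nocodazole release, G1/S directly after double thymidine block.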

With “MDAPRQVVNFGPGPAKLPHSVLLEIQKELLDYKGVGISVLEMSHRSSDFAKIINNTENLVRELLAVPDNYKVIFLQGGGCGQFSAVPLNLIGLKAGRCADYVVTGAWSAKAAEEAKKFGTINIVHPKLGSYTKIPDPSTWNLNPDASYVYYCANETVHGVEFDFIPDVKGAVLVCDMSSNFLSKPVDVSKFGVIFAGAQKNVGSAGVTVVIVRDDLLGFALRECPSVLEYKVQAGNSSLYNTPPCFSIYVMGLVLEWIKNNGGAAAMEKLSSIKSQTIYEIIDNSQGFYVCPVEPQNRSKMNIPFRIGNAKGDDALEKRFLDKALELNMLSLKGHRSVGGIRASLYNAVTIEDVQKLAAFMKKFLEMHQL [PSAT1]”, the melting temperature in data set [1] (cell cycle stage: G1/S) and in data set [1] (cell cycle stage: mitosis) was 55.6 °C throughout. Besides, the “solubility change mitosis (log2)” value in data set [2] was -0.136. In addition, the thermal stability score was -0.482 in data set [3] (setting [5]) and -0.769 in data set [3] (cell cycle stage: mitosis). Further, in data set [4], the “solubility in G1/S (log2)” value worked out at 0.15.
On to “MDASLEKIADPTLAEMGKNLKEAVKMLEDSQRRTEEENGKKLISGDIPGPLQGSGQDMVSILQLVQNLMHGDEDEEPQSPRIQNIGEQGHMALLGHSLGAYISTLDKEKLRKLTTRILSDTTLWLCRIFRYENGCAYFHEEEREGLAKICRLAIHSRYEDFVVDGFNVLYNKKPVIYLSAAARPGLGQYLCNQLGLPFPCLCRVPCNTVFGSQHQMDVAFLEKLIKDDIERGRLPLLLVANAGTAAVGHTDKIGRLKELCEQYGIWLHVEGVNLATLALGYVSSSVLAAAKCDSMTMTPGPWLGLPAVPAVTLYKHDDPALTLVAGLTSNKPTDKLRALPLWLSLQYLGLDGFVERIKHACQLSQRLQESLKKVNYIKILVEDELSSPVVVFRFFQELPGSDPVFKAVPVPNMTPSGVGRERHSCDALNRWLGEQLKQLVPASGLTVMDLEAEGTCLRFSPLMTAAVLGTRGEDVDQLVACIESKLPVLCCTLQLREEFKQEVEATAGLLYVDDPNWSGIGVVRYEHANDDKSSLKSDPEGENIHAGLLKKLNELESDLTFKIGPEYKSMKSCLYVGMASDNVDAAELVETIAATAREIEENSRLLENMTEVVRKGIQEAQVELQKASEERLLEEGVLRQIPVVGSVLNWFSPVQALQKGRTFNLTAGSLESTEPIYVYKAQGAGVTLPPTPSGSRTKQRLPGQKPFKRSLRGSDALSETSSVSHIEDLEKVERLSSGPEQITLEASSTEGHPGAPSPQHTDQTEAFQKGVPHPEDDHSQVEGPESLR [PDXDC1]”, for which the results for the melting temperature in data set [1] (cell cycle stage: G1/S) and in data set [1] (cell cycle stage: mitosis) were 47.8 °C and 48.8 °C, respectively. Besides, the “solubility change mitosis (log2)” value in data set [2] was -0.152. The thermal stability score turned out to be 1.35 in data set [3] (setting [5]) and 2.61 in data set [3] (cell cycle stage: mitosis). For the same sequence, in data set [4], the “solubility in G1/S (log2)” value stood at 0.342.
Consider “MDATALERDAVQFARLAVQRDHEGRYSEAVFYYKEAAQALIYAEMAGSSLENIQEKITEYLERVQALHSAVQSKSADPLKSKHQLDLERAHFLVTQAFDEDEKENVEDAIELYTEAVDLCLKTSYETADKVLQNKLKQLARQALDRAEALSEPLTKPVGKISSTSVKPKPPPVRAHFPLGANPFLERPQSFISPQSCDAQGQRYTAEEIEVLRTTSKINGIEYVPFMNVDLRERFAYPMPFCDRWGKLPLSPKQKTTFSKWVRPEDLTNNPTMIYTVSSFSIKQTIVSDCSFVASLAISAAYERRFNKKLITGIIYPQNKDGEPEYNPCGKYMVKLHLNGVPRKVIIDDQLPVDHKGELLCSYSNNKSELWVSLIEKAYMKVMGGYDFPGSNSNIDLHALTGWIPERIAMHSDSQTFSKDNSFRMLYQRFHKGDVLITASTGMMTEAEGEKWGLVPTHAYAVLDIREFKGLRFIQLKNPWSHLRWKGRYSENDVKNWTPELQKYLNFDPRTAQKIDNGIFWISWDDLCQYYDVIYLSWNPGLFKESTCIHSTWDAKQGPVKDAYSLANNPQYKLEVQCPQGGAAVWVLLSRHITDKDDFANNREFITMVVYKTDGKKVYYPADPPPYIDGIRINSPHYLTKIKLTTPGTHTFTLVVSQYEKQNTIHYTVRVYSACSFTFSKIPSPYTLSKRINGKWSGQSAGGCGNFQETHKNNPIYQFHIEKTGPLLIELRGPRQYSVGFEVVTVSTLGDPGPHGFLRKSSGDYRCGFCYLELENIPSGIFNIIPSTFLPKQEGPFFLDFNSIIPIKITQLQ [CAPN7]”, for which the figures for the melting temperature in data set [1] (cell cycle stage: G1/S) and in data set [1] (cell cycle stage: mitosis) were 50.4 °C and 49.7 °C, respectively. Also, the “solubility change mitosis (log2)” value in data set [2] was -0.0174. Also, the results for the thermal stability score in data set [3] (setting [5]) and in data set [3] (cell cycle stage: mitosis) were -0.306 and -0.374, respectively. For the same sequence, in data set [4], the “solubility in G1/S (log2)” value was determined as 0.0756.
Regarding “MDAVNAFNQELFSLMDMKPPISRAKMILITKAAIKAIKLYKHVVQIVEKFIKKCKPEYKVPGLYVIDSIVRQSRHQFGTDKDVFGPRFSKNITATFQYLYLCPSEDKSKIVRVLNLWQKNGVFKIEIIQPLLDMAAGTSNAAPVAENVTNNEGSPPPPVKVSSEPPTQATPNSVPAVPQLPSSDAFAAVAQLFQTTQGQQLQQILQTFQQPPKPQSPALDNAVMAQVQAITAQLKTTPTQPSEQKAAFPPPEQKTAFDKKLLDRFDYDDEPEAVEESKKEDTTAVTTTAPAAAVPPAPTATVPAAAAPAAASPPPPQAPFGFPGDGMQQPAYTQHQNMDQFQPRMMGIQQDPMHHQVPLPPNGQMPGFGLLPTPPFPPMAQPVIPPTPPVQQPFQASFQAQNEPLTQKPHQQEMEVEQPCIQEVKRHMSDNRKSRSRSASRSPKRRRSRSGSRSRRSRHRRSRSRSRDRRRHSPRSRSQERRDREKERERRQKGLPQVKPETASVCSTTLWVGQLDKRTTQQDVASLLEEFGPIESINMIPPRGCAYIVMVHRQDAYRALQKLSRGNYKVNQKSIKIAWALNKGIKADYKQYWDVELGVTYIPWDKVKPEELESFCEGGMLDSDTLNPDWKGIPKKPENEVAQNGGAETSHTEPVSPIPKPLPVPVPPIPVPAPITVPPPQVPPHQPGPPVVGALQPPAFTPPLGIPPPGFGPGVPPPPPPPPFLRPGFNPMHLPPGFLPPGPPPPITPPVSIPPPHTPPISIPNSTIAGINEDTTKDLSIGNPIPTVVSGARGNAESGDSVKMYGSAVPPAAPTNLPTPPVTQPVSLLGTQGVAPGPVIGLQAPSTGLLGARPGLIPLQRPPGMPPPHLQRFPLMPPRPMPPHMMHRGPPPGPGGFAMPPPHGMKGPFPPHGPFVRPGGMPGLGGPGPGPGGPEDRDGRQQPPQQPQQQPQPQAPQQPQQQQQQQPPPSQQPPPTQQQPQQFRNDNRQQFNSGRDQERFGRRSFGNRVENDRERYGNRNDDRDNSNRDRREWGRRSPDRDRHRDLEERNRRSSGHRDRERDSRDRESRREKEEARGKEKPEVTDRAGGNKTVEPPISQVGNVDTASELEKGVSEAAVLKPSEELPAEATSSVEPEKDSGSAAEAPR [SCAF4]”, the melting temperature turned out to be 48.5 °C in data set [1] (cell cycle stage: G1/S) and 51.4 °C in data set [1] (cell cycle stage: mitosis). In data set [2], the “solubility change mitosis (log2)” value is 0.211. Besides, the thermal stability score was 0.0642 in data set [3] (setting [5]) and -0.063 in data set [3] (cell cycle stage: mitosis). Besides, the “solubility in G1/S (log2)” value in data set [4] is -0.347.

(Values after the supplement of paper PMC5998384.)
